# According to patent EP1828247B1:
# Biological target: West Nile virus strain USA99b (strain 385-99), whole virus (West Nile virus strain 385-99 (USA99b))
# Experiment: ELISA on irradiated WNV; antibody at 20.000 µg/ml
substance,measurement,value
anti-rabies virus antibody (negative control),OD 492nm,0.051 OD 492nm
